Source: patent US9394339B2, “Stabilized formulations of peptides and proteins protecting against non-enzymatic degradation” (Lyotropic Therapeutics, Inc., priority 2007, dated 2016)
Entries after “also recorded” stand apart in the source; their conditions may differ. Where two headings read alike, the source gives them in different places. One block for each molecule: values may come before it.

Experiments:
[1] = cited from earlier work; for T1/2 (half-life, deamidation): buffer
[2] = system: decapeptide RCNSGRFNGG-NH2; experiment: Decapeptide accelerated stability test, potency of intact peptide by HPLC; format: physicochemical
Experimental: To begin with, a decapeptide was synthesized by request at the Protein Facility of the Iowa State University Office of Biotechnology, using standard peptide synthesis methodology.
Samples containing this decapeptide were prepared under eight different conditions at two different pH values, pH 7 and 4. […] The preparation of these samples is now described. The ratios indicated are molar ratios of organic anion to decapeptide.
Into a sterile 15 mL plastic centrifuge tube (Corning Incorporated, Corning, N.Y.) was placed 0.0021 g decapeptide (Iowa State University, Ames, Iowa) and 7.0 g sterile water (Spectrum Chemicals Mfg. Corp., Gardena, Calif.). The pH was adjusted using 1.0N HCl (Spectrum Chemicals Mfg. Corp., Gardena, Calif.) to a pH of 4. Into a new 15 mL plastic centrifuge tube was placed 3.5 mL of a pH 4 solution. The pH was adjusted using only the necessary amount of 1.0N NaOH (Spectrum Chemicals Mfg. Corp., Gardena, Calif.) to a final pH of 7.
(anion:asparaginyl molar ratio). […] Into a new 15 mL plastic centrifuge tube was placed 3.5 mL of a pH 4 solution. The pH was adjusted using only the necessary amount of 1.0N NaOH to a final pH of 7.
(§1) Into a new 15 mL plastic centrifuge tube was placed 3.5 mL of a pH 4 solution. The pH was adjusted using only the necessary amount of 1.0N NaOH to a final pH of 7.
as §1, §1
Into a sterile 1.5 mL microcentrifuge tube was placed a 0.5 g portion of each sample condition and were placed at −18° C. This was the initial sample. The remaining pH 4 samples were placed at 65° C. until completion of the experiment. The remaining pH 7 samples were placed at 40° C. until completion of the experiment. […] This was the day 1 sample. The frozen initial and day 1 samples were thawed to room temperature, and assayed using HPLC.
The samples at the various timepoints were then analyzed with HPLC using the following conditions.
System: Schimadzu SCL-10A VP with diode array detector
Column: Phenomenex C18 Luna 5 um, 250×4.6 mm
Mobile Phase: Isocratic 90% (0.1%) TFA in water, 10% (0.08%) TFA in acetonitrile
The potency (mg/mL of intact peptide) was determined by integrating under this peak (performed by the instrument), and normalizing according to a standard run of the decapeptide.
The sample stressing and HPLC were applied as above.
(anion:asparaginyl ratio). Into a sterile 15 mL plastic centrifuge tube was placed 0.0021 g decapeptide, 0.0029 g N-acetyl-D-tryptophan (MP Biomedicals, Solon, Ohio) and 7.0 g sterile water. The pH was adjusted using 1.0N HCl to a pH of 4. Into a new 15 mL plastic centrifuge tube was placed 3.5 mL of a pH 4 solution. The pH was adjusted using only the necessary amount of 1.0N NaOH to a final pH of 7. Since the molar ratio of acetyltryptophan to decapeptide is 6:1, and each decapeptide has two asparaginyl residues, the molar ratio of NAT to asparagine is 3:1.
The pH was adjusted using only the necessary amount of 1.0N NaOH to a final pH of 7.

[3] = accepted approximate value, dilute aqueous solution; cited from earlier work
[4] = aqueous solution, pH 7.4, 37° C., Tris-HCl buffer
[5] = pH 7, 24 hours at 40° C., molar ratio anion:Asn 3

Molecule: 1-Antitrypsin (1QLP): human protein
- T1/10 (time to 10% degradation by deamidation) [1, 4]: 6.1 days

Molecule: Cl [Hydrochloric, hydrochloric acid]
- potency remaining ([2]; pH 7, 24 hours at 40° C., HCl control, no organic anion, listed as HCl): less than 7%
- potency remaining ([2]; pH 7, 24 hours at 40° C., HCl control, no organic anion, listed as hydrochloric acid control): under 7%

- potency remaining ([2]; pH 4, stressed at 65° C., anion:Asn 3:1): 74%
- Relative potency [2, 5]: 1.028
Molecule: CC(=O)N[C@H](Cc1c[nH]c2ccccc12)C(=O)O [N-acetyltryptophanate, N-acetyl-D-tryptophan]
- Relative potency ([2]; pH 7, 24 hours at 40° C., molar ratio anion:Asn 3, listed as N-acetyltryptophan): completely retained; also recorded: no detectable degradation
- pKa (first listed) [3]: 3.37

- Relative potency ([2]; pH 4, 24 hours at 65° C., anion:Asn 10:1): 87%
- Relative potency ([2]; pH 7, 24 hours at 40° C., molar ratio anion:Asn 1): 0.080
- Relative potency ([2]; pH 7, 24 hours at 40° C., molar ratio anion:Asn 1, listed as saccharin): much less enhancement
- Relative potency [2, 5]: 0.008
- Relative potency ([2]; pH 7, 24 hours at 40° C., molar ratio anion:Asn 10): 0.523
- Relative potency ([2]; pH 7, 24 hours at 40° C., molar ratio anion:Asn 10, listed as saccharin): enhanced stability
Molecule: O=C1NS(=O)(=O)c2ccccc21 [Saccharin, 2,3-dihydro-3-oxobenzisosulfonazole]

Molecule: C[C@H](CCC(=O)O)[C@H]1CC[C@H]2[C@@H]3CC[C@@H]4C[C@H](O)CC[C@]4(C)[C@H]3C[C@H](O)[C@]12C [deoxycholic, deoxycholic acid]
- pKa (first listed) [3]: 5.7

Molecule: C[C@H](CCC(=O)NCC(=O)O)[C@H]1CC[C@H]2[C@@H]3[C@H](O)C[C@@H]4C[C@H](O)CC[C@]4(C)[C@H]3C[C@H](O)[C@]12C [glycocholic]
- pKa (first listed) [3]: 3.6

Molecule: CC(O)C(=O)O (stereo not shown) [lactic, lactic acid]
- pKa (first listed) [3]: 3.95

Molecule: O=C(O)/C=C\C(=O)O [maleic]
- pKa (first listed) [3]: 3.9

Molecule: CCCCCCCC/C=C\CCCCCCCC(=O)O [oleic]
- pKa (first listed) [3]: 4.5

Molecule: -Chymotrypsinogen (1CGI): human protein
- T1/10 (time to 10% degradation by deamidation) [1, 4]: 2.4 days

Molecule: Angiogenin (1A4Y): human protein
- T1/10 (time to 10% degradation by deamidation) [1, 4]: 3.2 days

Molecule: Annexin V (1ANX): human protein
- T1/10 (time to 10% degradation by deamidation) [1, 4]: 33 days

Molecule: Apoptosis regulator bax (1F16): human protein
- T1/10 (time to 10% degradation by deamidation) [1, 4]: 26 days

Molecule: Argininosuccinate lyase (1AOS): human protein
- T1/10 (time to 10% degradation by deamidation) [1, 4]: 13 days

Molecule: Carbonic anhydrase I (1HCB): human protein
- T1/10 (time to 10% degradation by deamidation) [1, 4]: 6.8 days

Molecule: Creatine kinase ( 1QK1): human protein
- T1/2 (half-life, deamidation) ([1]; pH 7.4): 84 days
- T1/10 (time to 10% degradation by deamidation) ([1]; pH 7.4): 13 days

Molecule: Cyclophilin A (1AWQ): human protein
- T1/10 (time to 10% degradation by deamidation) [1, 4]: 1.3 days

Molecule: D-Glyceraldehyde-3-phosphate dehydrogenase (3GPD): human protein
- T1/2 (half-life, deamidation) ([1]; pH 7.4): 4.2 days
- T1/10 (time to 10% degradation by deamidation) ([1]; pH 7.4): 0.64 days

Molecule: Fibroblast growth factor (2AFG): human protein
- T1/10 (time to 10% degradation by deamidation) [1, 4]: 3.2 days

Molecule: GTP-binding protein (1DOA): human protein
- T1/10 (time to 10% degradation by deamidation) [1, 4]: 6.8 days

Molecule: Growth hormone (1HGU): human protein
- T1/10 (time to 10% degradation by deamidation) [1, 4]: 7.8 days

Molecule: Growth hormone receptor (1A22): human protein
- T1/10 (time to 10% degradation by deamidation) [1, 4]: 0.36 days

Molecule: Homeobox protein PAX-6 (6PAX): human protein
- T1/10 (time to 10% degradation by deamidation) [1, 4]: 5.9 days

Molecule: Insulin (2HIU): human protein
- T1/2 (half-life, deamidation) ([1]; pH 7.4): 260 days
- T1/10 (time to 10% degradation by deamidation) ([1]; pH 7.4): 40 days

Molecule: Interleukin-1 (2I1B): human protein
- T1/10 (time to 10% degradation by deamidation) [1, 4]: 43 days

Molecule: Interleukin-4 (2CYK): human protein
- T1/10 (time to 10% degradation by deamidation) [1, 4]: 41 days

Molecule: Interleukin-6 (1IL6): human protein
- T1/10 (time to 10% degradation by deamidation) [1, 4]: 8.5 days

Molecule: Interleukin-8 (1IL8): human protein
- T1/10 (time to 10% degradation by deamidation) [1, 4]: 14 days

Molecule: Interleukin-10 (2ILK): human protein
- T1/10 (time to 10% degradation by deamidation) [1, 4]: 3.8 days

Molecule: Intestinal fatty acid binding protein (3IFB): human protein
- T1/2 (half-life, deamidation) ([1]; pH 7.4): 7.6 days
- T1/10 (time to 10% degradation by deamidation) ([1]; pH 7.4): 1.2 days

Molecule: Lysophospholipase (1LCL): human protein
- T1/10 (time to 10% degradation by deamidation) [1, 4]: 2.4 days

Molecule: Malic enzyme (1EFK): human protein
- T1/2 (half-life, deamidation) ([1]; pH 7.4): 140 days
- T1/10 (time to 10% degradation by deamidation) ([1]; pH 7.4): 21 days

Molecule: Mitogen-activated protein kinase P38 (1WFC): human protein
- T1/10 (time to 10% degradation by deamidation) [1, 4]: 17 days

Molecule: N-acetylgalactosamine-4-sulfatase (1FSU): human protein
- T1/10 (time to 10% degradation by deamidation) [1, 4]: 0.93 days

Molecule: NAD(P)H dehydrogenase (1QBG): human protein
- T1/10 (time to 10% degradation by deamidation) [1, 4]: 53 days

Molecule: Peptidyl-prolyl cis-trans isomerase (1F8A): human protein
- T1/10 (time to 10% degradation by deamidation) [1, 4]: 0.36 days

Molecule: Platelet factor 4-HPF4 (1RHP): human protein
- T1/10 (time to 10% degradation by deamidation) [1, 4]: 35 days

Molecule: Proinsulin (1EFE): human protein
- T1/10 (time to 10% degradation by deamidation) [1, 4]: 17 days

Molecule: Stem cell factor (1EXZ): human protein
- T1/10 (time to 10% degradation by deamidation) [1, 4]: 27 days

Molecule: Transforming growth factor-two (1KLA): human protein
- T1/10 (time to 10% degradation by deamidation) [1, 4]: 70 days

Molecule: Triose phosphate isomerase (1HTI): human protein
- T1/10 (time to 10% degradation by deamidation) [1, 4]: 7.9 days
